Results from patent publication US20230357378A1 (NEURACLE SCIENCE, published 2023).

T1: Peptide F1-BSA (C-terminal Cys conjugated to BSA)
T1 construct: BSA-conjugated human FAM19A5 peptide fragment F1, lane 3; size printed as 105 kDa
T1 peptide: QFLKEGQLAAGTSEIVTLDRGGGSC

T2: Peptide F6-BSA (C-terminal Cys conjugated to BSA)
T2 construct: BSA-conjugated human FAM19A5 peptide fragment F6, lane 8; size printed as 103 kDa
T2 peptide: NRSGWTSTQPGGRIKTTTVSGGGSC

T3: Peptide F4-BSA (C-terminal Cys conjugated to BSA)
T3 construct: BSA-conjugated human FAM19A5 peptide fragment F4, lane 6; size printed as 106 kDa
T3 peptide: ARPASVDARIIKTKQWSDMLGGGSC


Columns and labels:
Peptide F1-BSA = biological target: T1, Peptide F1-BSA; test: Western blot, 300 ng antigen per well, anti-rabbit IgG (Fc specific)-HRP 1:4000
Peptide F6-BSA = biological target: T2, Peptide F6-BSA; test: as above
Peptide F4-BSA = biological target: T3, Peptide F4-BSA; test: as above
FAM19A1-flag = test: immunoblot of vector and flag-tagged FAM19A1 to FAM19A5 samples

binding result (Peptide F1-BSA) | binding result (Peptide F6-BSA) | binding result (Peptide F4-BSA) | binding result (FAM19A1-flag) | Binder
no binding (tested: 2 ug/ml) | no binding (tested: 2 ug/ml) | no binding (tested: 2 ug/ml) | – | 1-65-scFv-rabbit-Fc-SSS (Fc fusion, scFv of 1-65 fused to rabbit Fc ('SSS'), used as primary antibody in the Western blot; also called anti-FAM19A5 antibody 1-65; monoclonal antibody clone 1-65) VH: AVTLDESGGGLQTPGGALSLVCKASGFTFSSYQMGWVRQAPGKGLEWVGVINKSGSDTSYGSAVKGRATISRDNGQSTVRLQLNNLRAEDTGTYFCAKGSASYITAATIDAWGHGTEVIVSS VL: ALTQPSSVSANPGETVKITCSGGGSSGYGYGWYQQKSPSSAPLTVIYWNDKRPSDIPSRFSGSKSGSTHTLTITGVQAEDEAVYFCGNDDYSSDSGYVGVFGAGTTLTVL
– | – | – | no binding | chimeric anti-FAM19A5-IgG2/4 monoclonal antibody (1-65) (antibody, V domains shown, also called anti-FAM19A5-IgG2/4 antibody) VH: AVTLDESGGGLQTPGGALSLVCKASGFTFSSYQMGWVRQAPGKGLEWVGVINKSGSDTSYGSAVKGRATISRDNGQSTVRLQLNNLRAEDTGTYFCAKGSASYITAATIDAWGHGTEVIVSS VL: ALTQPSSVSANPGETVKITCSGGGSSGYGYGWYQQKSPSSAPLTVIYWNDKRPSDIPSRFSGSKSGSTHTLTITGVQAEDEAVYFCGNDDYSSDSGYVGVFGAGTTLTVL
